Experimental data published in US20220267422A1 (PHAROSGEN, published 2022).

T1: mPRND
T1 construct: also called Mouse PRND; mouse doppel, recombinant, C-terminal His tag
T1 single chain: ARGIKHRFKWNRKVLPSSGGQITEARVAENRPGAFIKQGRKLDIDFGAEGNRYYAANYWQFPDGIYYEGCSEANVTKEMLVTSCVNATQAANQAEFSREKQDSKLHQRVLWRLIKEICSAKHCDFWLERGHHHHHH


Assays:
[1] = target: T2, human doppel on human tumor endothelial cells (human, UniProt Q9UKY0 26-152); assay: flow cytometry on HCTEC (human colonic tumor endothelial cells), fluorescent secondary antibody; no control bar and no antibody concentration shown
T2 construct: whole, on cells; also called PRND; hPRND
T2 sequence (Q9UKY0 26-152): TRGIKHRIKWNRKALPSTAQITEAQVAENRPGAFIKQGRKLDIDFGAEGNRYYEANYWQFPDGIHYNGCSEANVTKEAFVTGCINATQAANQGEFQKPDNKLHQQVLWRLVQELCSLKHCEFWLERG

[2] = target: T1, mPRND; assay: ELISA, […], antibody 0-100 nM; […] (nM)'
[3] = target: doppel (Prnd) recombinant protein immobilized on the SPR sensor chip; assay: SPR, BIAcore T100, recombinant protein immobilized on chip
Chain of doppel (Prnd) recombinant protein immobilized on the SPR sensor chip (Q9UKY0 26-152): as above
Experimental: Affinity measurements of anti-doppel monoclonal antibodies produced by the clones described herein with Prnp and Prnd (doppel) were performed by the surface plasmon resonance on a BIAcore T100 (GE Healthcare). Using the standard EDAC-NHS coupling method, recombinant proteins were immobilized at a density of 4000-7000 onto a sensor chip (GE Healthcare). Measurements were performed at a flow rate of 20 μL/min, and 50 mM NaOH was used to regenerate the chip surface after each cycle of analysis. Each concentration was analyzed in duplicate. Kinetic analysis of the data obtained was performed using BIAcore T100 evaluation software (GE Healthcare).

[4] = target: T1, mPRND; assay: ELISA, […], antibody 0-100 nM; […] (nM)'
[5] = target: T3, Doppel on HCT116 cells, HUVEC and Dpl k/d HUVEC (human, UniProt Q9UKY0); assay: flow cytometry, '% Doppel Ab binding cell' on HCT116, HUVEC and doppel knock-down HUVEC (24h, 48h); no control antibody and no concentration shown
T3 construct: endogenous, on the surface of HCT116 cells, HUVEC and doppel knock-down HUVEC; also called PRND
T3 sequence (Q9UKY0 26-152 limits assumed): as the sequence (Q9UKY0 26-152) above

[6] = target: T1, mPRND; assay: ELISA, […], antibody 0-100 nM; […] (nM)'; […]
[7] = target: T2, human doppel on human tumor endothelial …; assay: flow cytometry on human tumor endothelial cells, cancer cells and doppel knock-down cells

Row | Binder | binding result [1] | Kd [2] | Kd [3] | Kd [4] | binding result [5] | Kd [6] | binding result [7]
1 | murine monoclonal antibody produced by hybridoma cell line clone 4H7 (antibody, V domains shown, also called hPrnd #4H7; KCLRF-BP-00496) VH: DVQLQESGPDLVKPSQSLSLTCTVTGYSITSGYSWHWIRQFPGNKLEWMGYIHYSGNTNYNPSLKSRISITRDTSKNQFFLQLNSVTTEDTATYSCAMRTYYYGPLDYWGQGTTLTVSS VL: not shown | binds | 0.868 nM | 0.0287 nM | – | – | – | –
2 | murine monoclonal antibody produced by hybridoma cell line clone 2E9 (antibody, V domains shown, also called hPrnd #2E9; KCLRF-BP-00493) VH: not shown VL: DVQMTQTTSSLSASLGDRVTISCSASRGISNYLNWYQQKPDGTVKLLIYYTSSLHSGVPPRFSGSGSGTDYSLTISNLEPEDIATYYCQQYSKLPSTFGGGTKVEIK | binds | – | 4.05 nM | – | – | – | –
3 | murine monoclonal antibody produced by hybridoma cell line clone 2B6 (antibody, V domains shown, also called hPrnd #2B6; KCLRF-BP-00490) VH: QVQLQQSGAELVRPGVSVKLSCKFSGFTFTDYAMHWVRQSHAKSLAWIGVISSYYGDASYNQKFTGKATMTVDKSSSTAYMELARLTSEDSAIYYCARRLRGAMDYWGQGTSVTVSS VL: DIVMTQSQKFMSTSVGDRVSVTCKASQNVDANVAWYQQKPGQSPKALIYSASYRYSGVPYRFTGSGSGTDFTLTISNVQSADLAEYFCQQYNSYPFTFGSGTKLELK | binds | – | 0.292 nM | 6.52 nM | binds | – | –
4 | murine monoclonal antibody produced by hybridoma cell line clone 7G3 (antibody, V domains shown, also called hPrnd #7G3; KCLRF-BP-00500) VH: EIQLQQTGPELVKPGASVKISCKASGYSFTDYIMLWVKQSHGKSLEWIGNINPYYGSTSYNLKFKGKATLTVDKSSSTAYMQLNSLTSEDSAVYYCARRNYYGNYDAMDYWGQGTSVTVSS VL: QIVLTQSPAIMSASLGERVTMTCTASSSVSSSYLHWYQQKPGSSPKLWIYSTSNLASGVPARFSGSGSGTSYSLTISSMEAEDTATYYCHQYHRSPLTFGAGTKLELK | binds | – | 10.6 nM | – | binds | 25.9 nM | –
5 | murine monoclonal antibody produced by hybridoma cell line clone 2C10 (antibody, V domains shown, also called hPrnd #2C10; KCLRF-BP-00491) VH: EVQLQESGPSLVKPSQTLSLTCSVTGDSITSGYWNWIRKFPGNKLEYMGYIRYSGSAYYNPSLKSRISITRDTSKNQYYLQLNSVTTEDTATYYCARYPYYGSYWYFDVWGAGTTVTVSS VL: DVQITQSPSYLAASPGETITLNCRASKSISKYLAWYQEKPGKTNKLLIYSGSTLQSGIPSRFSGSGSGSDFTLTISSLEPEDFAMYYCQQHSEYPWTFGGGTKLEIK | – | – | 8.76 nM | – | binds | – | binds
6 | murine monoclonal antibody produced by hybridoma cell line clone 7A11 (antibody, V domains shown, also called hPrnd #7A11; KCLRF-BP-00498) VH: QVQLQQPGAELVRPGASVKLSCKASGYTFTSYWINWVKQRPGQGLEWIGNIYPSDSYTNYNQKFKDKATLTVDKSSSTAYMQLSSPTSEDSAVYYCTRSMITWGQGTTLTVSS VL: DVLMTQTPLSLPVSLGDQASISCRSSQSIVHSNGNTYLEWYLQKPGQSPKVLIYKVSNRFSGVPDRFSGSGSGTDFTLKINRVEAEDLGVYYCFQGSHVPLTFGAGTKLELK | – | – | 0.253 nM | 0.876 nM | – | – | –
7 | Human monoclonal antibody A12 (antibody, V domains shown) VH: not shown VL: DIQMTQSPSSLSASVGDRVTITCRASQSIGSYLNWYQQKPGKAPKLLIYAASTLQSGVPSRFSGSGSGTDFTLTISSLQPEDFATYYCQQSYSFPWTFGQGTKVEIKR | – | – | 9.2 nM | – | binds | – | binds
8 | Human monoclonal antibody E9 (antibody, human IgG1, kappa, V domains shown) VH: QVQLVQSGAEVKKPGSSVKVSCKASGGTFSSYYMHWVRQAPGQGLEWMGRISPGGGGTIYAQKFQGRVTITADESTSTAYMELSSLRSEDTAVYYCARAQSEGLSYYFDVWGQGTLVTVSS VL: DIQMTQSPSSLSASVGDRVTITCRASQSIRNYLNWYQQKPGKAPKLLIYAASNLQSGVPSRFSGSGSGTDFTLTISSLQPEDFATYYCQQSSSFPLTFGQGTKVEIKR | – | – | 4.41 nM | – | – | – | –
9 | Human monoclonal antibody B2 (antibody, V domains shown) VH: not shown VL: DIQMTQSPSSLSASVGDRVTITCRASQSISNYLNWYQQKPGKAPKLLIYAASRLQSGVPSRFSGSGSGTDFTLTISSLQPEDFATYYCQQSYSFPWTFGQGTKVEIKR | – | – | 7.99 nM | – | binds | – | binds
